From the supplement of paper PMC10567573
± gives the standard deviation.

Test: protein stability index of a GFP-peptide fusion (GPS, HEK-293T) (PSI 1-6); higher = more stable
Conditions: c terminus: a fixed tail appended
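Also: 24-mer peptide tiles fused after GFP, lentivirally expressed, FACS-sorted into six equal bins by GFP/DsRed ratio, decoded by Illumina sequencing, PSI is the read-weighted mean bin number.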

DEIYRVLRYVNSTRAPQRAHEVLQ [FBXO28]
protein stability index (treatment: DMSO): 2.43 ± 0.28
protein stability index (treatment: MLN4924 1 uM, 8 h): 2.44 ± 0.33

CRMSIRRVMPTQEVQELPIPSKLL [WSB1]
protein stability index (treatment: DMSO): 2.42 ± 0.2
protein stability index (treatment: MLN4924 1 uM, 8 h): 2.52 ± 0.2

ELRRDSSESQLASTESDKPTTGRV [C18orf25]
protein stability index (treatment: DMSO): 5.28 ± 0.38
protein stability index (treatment: MLN4924 1 uM, 8 h): 5.39 ± 0.21

RSLILDDRGLRGFPKNRVLEGVID [TRIM9]
protein stability index (treatment: DMSO): 3.16 ± 0.2
protein stability index (treatment: MLN4924 1 uM, 8 h): 3.47 ± 0.41

SSAGSAEQTAPGDSTGYMEVSLDS [EHMT1]
protein stability index (treatment: DMSO): 5.29 ± 0.35
protein stability index (treatment: MLN4924 1 uM, 8 h): 5.33 ± 0.12

KDPYGKPVDLWACGVILYILLVGY [CAMK2A]
protein stability index (treatment: DMSO): 3.16 ± 0.97
protein stability index (treatment: MLN4924 1 uM, 8 h): 3.07 ± 0.32

IVTVHYGCASFIYLRPQSNYSSSQ [OR10K2]
protein stability index (treatment: DMSO): 2.92 ± 0.39
protein stability index (treatment: MLN4924 1 uM, 8 h): 2.95 ± 0.56

ASWAKPHYEFNLSRMKFRGNGALS [LCOR]
protein stability index (treatment: DMSO): 2.56 ± 0.19
protein stability index (treatment: MLN4924 1 uM, 8 h): 2.71 ± 0.24

QIVLLKSSAIEVIMLRSNESFTMD [VDR]
protein stability index (treatment: DMSO): 2.6 ± 0.7
protein stability index (treatment: MLN4924 1 uM, 8 h): 2.44 ± 0.4

MSEGKPPDKKKRPRRSLSISKNKK [FAN1]
protein stability index (treatment: DMSO): 5.08 ± 0.17
protein stability index (treatment: MLN4924 1 uM, 8 h): 5.07 ± 0.21

VGRTVLDMLIREVVEKRLCMYEHG [RSPH3]
protein stability index (treatment: DMSO): 2.89 ± 0.52
protein stability index (treatment: MLN4924 1 uM, 8 h): 3.39 ± 0.14

VDHHGTAQLQALRQKEVDFCISLL [INTS3]
protein stability index (treatment: DMSO): 2.23 ± 0.2
protein stability index (treatment: MLN4924 1 uM, 8 h): 2.35 ± 0.45

DQCKINKQIYNLIHLDPRTREGFT [FEM1B]
protein stability index (treatment: DMSO): 2.2 ± 0.35
protein stability index (treatment: MLN4924 1 uM, 8 h): 2.52 ± 0.38

SMVVPLLSLHVKSLGASPTVAGIV [MFSD9]
protein stability index (treatment: DMSO): 2.95 ± 0.36
protein stability index (treatment: MLN4924 1 uM, 8 h): 2.4 ± 0.46

SVLKRPERSQEESPPGSTKRRKSM [CDC25A]
protein stability index (treatment: DMSO): 5.29 ± 0.29
protein stability index (treatment: MLN4924 1 uM, 8 h): 5.5 ± 0.2

RTMCAVLGLVARQEDSGLRDHSVR [AUP1]
protein stability index (treatment: DMSO): 2.43 ± 0.33
protein stability index (treatment: MLN4924 1 uM, 8 h): 2.76 ± 0.26

YEHYERVENGDFNWIVPGKFLAFS [CDC14A]
protein stability index (treatment: DMSO): 2.34 ± 0.16
protein stability index (treatment: MLN4924 1 uM, 8 h): 2.26 ± 0.29

KVPNHYIAIPEWFLSENATVAAET [CPXM2]
protein stability index (treatment: DMSO): 3.22 ± 0.43
protein stability index (treatment: MLN4924 1 uM, 8 h): 3.32 ± 0.47

EDESQSEEENDYRNLDASPTYKGL [CEP70]
protein stability index (treatment: DMSO): 5.27 ± 0.23
protein stability index (treatment: MLN4924 1 uM, 8 h): 5.41 ± 0.15

FVALKSVRVPNGGGGGGGLPISTV [CDK4]
protein stability index (treatment: DMSO): 2.52 ± 0.24
protein stability index (treatment: MLN4924 1 uM, 8 h): 2.41 ± 0.33

ELEGTEELCCVAELDNPMQQKWTK [C2CD2L]
protein stability index (treatment: DMSO): 4.58 ± 0.45
protein stability index (treatment: MLN4924 1 uM, 8 h): 4.77 ± 0.28

LPVASSSTLLPLAPSNSTSLNSTF [NFE2L1]
protein stability index (treatment: DMSO): 3.89 ± 0.11
protein stability index (treatment: MLN4924 1 uM, 8 h): 3.65 ± 0.24

QSQSLRDRARRFEEALRKNTEEQL [MTUS2]
protein stability index (treatment: DMSO): 4.88 ± 0.28
protein stability index (treatment: MLN4924 1 uM, 8 h): 5.06 ± 0.18

KKCCIPETRRRMEMAFNTRCKEEN [NLN]
protein stability index (treatment: DMSO): 3.57 ± 0.25
protein stability index (treatment: MLN4924 1 uM, 8 h): 3.75 ± 0.22

NLTRRFSDLGFEVKCFNDLKAEEL [CASP6]
protein stability index (treatment: DMSO): 2.76 ± 0.46
protein stability index (treatment: MLN4924 1 uM, 8 h): 3 ± 0.27

SGGSYRDSYESYGNSRSAPPTRGP [RBMX]
protein stability index (treatment: DMSO): 4.3 ± 0.27
protein stability index (treatment: MLN4924 1 uM, 8 h): 3.83 ± 0.38

MLLSVSQSMSEEEREKVTPLMVKG [SEPHS2]
protein stability index (treatment: DMSO): 3.83 ± 0.36
protein stability index (treatment: MLN4924 1 uM, 8 h): 3.86 ± 0.43

LLADLKKCGDLECEALINRVSAMR [MIA2]
protein stability index (treatment: DMSO): 2.53 ± 0.23
protein stability index (treatment: MLN4924 1 uM, 8 h): 2.55 ± 0.32

ASRQKTSLGIELHCNVSNILHMNG [ZNF396]
protein stability index (treatment: DMSO): 1.97 ± 0.23
protein stability index (treatment: MLN4924 1 uM, 8 h): 2.12 ± 0.14

LPPPSAPSLQPSRKLSPTEPKNYG [SCAMP3]
protein stability index (treatment: DMSO): 4.79 ± 0.16
protein stability index (treatment: MLN4924 1 uM, 8 h): 4.86 ± 0.24

SSIECYDPIIDSWEVVTSMGTQRC [KLHL12]
protein stability index (treatment: DMSO): 2.95 ± 0.2
protein stability index (treatment: MLN4924 1 uM, 8 h): 3.24 ± 0.49

DAEFLCVFCREGPTHQAHTVGFLD [TRIM15]
protein stability index (treatment: DMSO): 2.31 ± 0.27
protein stability index (treatment: MLN4924 1 uM, 8 h): 2.34 ± 0.33

PSHGEVGEHKDRIERQWGNLLGEG [ZSCAN9]
protein stability index (treatment: DMSO): 4.47 ± 0.19
protein stability index (treatment: MLN4924 1 uM, 8 h): 4.47 ± 0.36

DELAHRCSSFMAPPVTDLGELRRR [CPOX]
protein stability index (treatment: DMSO): 3.92 ± 0.11
protein stability index (treatment: MLN4924 1 uM, 8 h): 4.04 ± 0.3

AKINIVYQELNYRSVEEAPVYSVP [SCNN1D]
protein stability index (treatment: DMSO): 2.17 ± 0.14
protein stability index (treatment: MLN4924 1 uM, 8 h): 2.15 ± 0.45

ASKKTAQPWVEVVLALRNMKNLLF [MFSD9]
protein stability index (treatment: DMSO): 2.75 ± 0.73
protein stability index (treatment: MLN4924 1 uM, 8 h): 2.57 ± 0.39
